The data set is described as follows: protein stability index of a GFP-peptide fusion (GPS, HEK-293T) (PSI 1-6); higher = more stable. Particulars: c terminus: a fixed tail appended.

± gives the standard deviation.
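Note: 24-mer peptide tiles fused after GFP, lentivirally expressed, FACS-sorted into six equal bins by GFP/DsRed ratio, decoded by Illumina sequencing, PSI is the read-weighted mean bin number.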

Turning to DEEDCPNPEEYNLDEPNAESDYTY [SRPK2], the protein stability index (treatment: DMSO) stood at 5.57 ± 0.37 and the protein stability index (treatment: MLN4924 1 uM, 8 h) was found to be 5.66 ± 0.15. QARRQQVKQYLSTTLGPKLASQAL [TFE3]: the protein stability index by setting is: (treatment: DMSO) 2.95 ± 0.51; (treatment: MLN4924 1 uM, 8 h) 2.9 ± 0.23.

Turning to RKILVLDLDETLIHSHHDGVLRPT [CTDNEP1], the protein stability index (treatment: DMSO) stood at 2.46 ± 0.2 and the protein stability index (treatment: MLN4924 1 uM, 8 h) amounted to 2.61 ± 0.17. For EISEAFTSTGFDRHTSPVFSPANP [BCL2L13], the protein stability index runs as follows: (treatment: DMSO) 3.9 ± 0.24; (treatment: MLN4924 1 uM, 8 h) 3.99 ± 0.25. For the sequence FTLKEEKPKMYFMTMIVSLAAVAW [ARL6IP1], the protein stability index is, setting by setting: (treatment: DMSO) 3.4 ± 0.81; (treatment: MLN4924 1 uM, 8 h) 2.8 ± 0.86. Consider VYLANQAKNQSDEAKEAKGSGYEK [RTP4], for which the protein stability index is, setting by setting: (treatment: DMSO) 4.96 ± 0.52; (treatment: MLN4924 1 uM, 8 h) 5.08 ± 0.21. Regarding FWYREALDISDSISESGGLNWKMT [SLC6A17], the protein stability index stood at 2.17 ± 0.34 (treatment: DMSO) and 1.92 ± 0.32 (treatment: MLN4924 1 uM, 8 h).

Consider GTDEEEEEFIEEEDQEEEESTEGK [TRIM63], for which the protein stability index runs as follows: (treatment: DMSO) 5.71 ± 0.17; (treatment: MLN4924 1 uM, 8 h) 5.56 ± 0.24.

Consider EFIRDILIHPELNEGLMKWENRHE [ELF3], for which the protein stability index by setting is: (treatment: DMSO) 2 ± 0.27; (treatment: MLN4924 1 uM, 8 h) 2.3 ± 0.48. As for WFPLHLSRILKKTVYNEMDKNRCE [EDNRA], the protein stability index is 2.6 ± 0.84 (treatment: DMSO) and 1.98 ± 0.4 (treatment: MLN4924 1 uM, 8 h). For KVHIGYLPNKQVLGLSKLARIVEI [GCH1], the protein stability index is, setting by setting: (treatment: DMSO) 2.84 ± 1.1; (treatment: MLN4924 1 uM, 8 h) 2.48 ± 0.8. In turn, SISEEGFHYLVFDLVTGGELFEDI [CAMK2B] came in with a protein stability index (treatment: DMSO) of 2.32 ± 0.42 and a protein stability index (treatment: MLN4924 1 uM, 8 h) of 2.24 ± 0.4. As to RSWAMLFASGGFQVKLYDIEQQQI [CRYL1], the protein stability index is, setting by setting: (treatment: DMSO) 2.16 ± 0.34; (treatment: MLN4924 1 uM, 8 h) 2.28 ± 0.67. As for YSIQERRPQLPQVLQHVRLPLLSP [KLHL20], the protein stability index came out at 3.4 ± 0.18 (treatment: DMSO) and 3.42 ± 0.32 (treatment: MLN4924 1 uM, 8 h). Turning to LVFEHVDQDLRTYLDKAPPPGLPA [CDK4], the protein stability index reads like this: (treatment: DMSO) 2.7 ± 0.36; (treatment: MLN4924 1 uM, 8 h) 2.88 ± 0.34. On the same counts, the results for GGVMYISGGITHDTFQKELMCFDP [KLHL13] are 2.23 ± 0.48 and 2.33 ± 0.54.

Turning to VSCLGLGTWVTFGGQITDEMAEQL [KCNAB2], the protein stability index turned out to be 2.32 ± 0.27 (treatment: DMSO) and 2.51 ± 0.3 (treatment: MLN4924 1 uM, 8 h). On to LQAALQVLELHHSKLDTTKALNLL [VPS39], for which the protein stability index reads like this: (treatment: DMSO) 2.23 ± 0.27; (treatment: MLN4924 1 uM, 8 h) 2.29 ± 0.21.

On to TIIEPAGESDNPLRFTSGLVVALD [INTS4], for which the protein stability index turned out to be 3.07 ± 0.37 (treatment: DMSO) and 3.24 ± 0.54 (treatment: MLN4924 1 uM, 8 h). For LKPTFTKQQIANLDKQAKLSRAYD [USP39], in that order: 3.61 ± 0.11 and 3.74 ± 0.16. In the case of RRWKLQVLDLRKNSHQDFWTVWSG [PRAME], the protein stability index reads like this: (treatment: DMSO) 2.46 ± 0.73; (treatment: MLN4924 1 uM, 8 h) 2.07 ± 0.44.

Turning to MDLSERQEVSSVRSLSSTGSLPSH [DLC1], the protein stability index turned out to be 4.61 ± 0.25 (treatment: DMSO) and 4.47 ± 0.29 (treatment: MLN4924 1 uM, 8 h). On the same counts, the results for MSLHGASGGHERSRDRRRSSDRSR [BTBD10] are 5.05 ± 0.16 and 5.19 ± 0.22.

As to RTELLKDAIGEGKVTLRIRNVRFS [MOG], the protein stability index came out at 2.68 ± 0.4 (treatment: DMSO) and 2.79 ± 0.42 (treatment: MLN4924 1 uM, 8 h).

Consider ADFGSATFDHEHHTTIVATRHYRP [CLK3], for which the protein stability index by setting is: (treatment: DMSO) 3.79 ± 0.21; (treatment: MLN4924 1 uM, 8 h) 3.92 ± 0.29. As for DAGPMVVHCSAGVGRTGCFIVIDA [PTPRD], the protein stability index amounted to 2.73 ± 1.3 (treatment: DMSO) and 2.7 ± 0.76 (treatment: MLN4924 1 uM, 8 h). Where the note is “treatment: DMSO”, PKGRFERKRNPSRKKQHICDECGK [ZNF24] yielded a protein stability index of 3.82 ± 0.49. For LDTERPVQKRARSGPQPRLPPCLL [TRIB3], the protein stability index is, setting by setting: (treatment: DMSO) 3.89 ± 0.41; (treatment: MLN4924 1 uM, 8 h) 4.1 ± 0.3. NQYLYFLFAPTLIYRDSYPRNPTV [SOAT1]: the protein stability index (treatment: DMSO) is 3.26 ± 0.69 and the protein stability index (treatment: MLN4924 1 uM, 8 h) is 2.57 ± 0.62.

SAPYSAAFLELPHGSGGSGYPAAP [TBX6]: the protein stability index reads like this: (treatment: DMSO) 3.27 ± 0.15; (treatment: MLN4924 1 uM, 8 h) 3.55 ± 0.27. For MYDLPKKEDALLYQSKGYNDDYYE [EMD], the protein stability index (treatment: DMSO) was determined as 4.27 ± 0.15 and the protein stability index (treatment: MLN4924 1 uM, 8 h) came to 4.25 ± 0.22. For the sequence TLIPTCKFYTWLWGVFYYFVSALG [SCD], the protein stability index reads like this: (treatment: DMSO) 2 ± 0.52; (treatment: MLN4924 1 uM, 8 h) 2.13 ± 0.15. On the same counts, the results for SNHSWNTQTWCTQSWNNQAWNSPF [NANOGP8] are 2.24 ± 0.23 and 2.19 ± 0.18. For PMKKNNNLYSWDDFMELGRSIPDT [ACSBG2], in that order: 3.74 ± 0.24 and 3.77 ± 0.3. For YQELLRVCCCELGVNPDQVEKIRK [ANKRD40], the protein stability index is, setting by setting: (treatment: DMSO) 2.41 ± 0.51; (treatment: MLN4924 1 uM, 8 h) 2.55 ± 0.22.

With HVAGEQMLEDGPHNANRGQRLLAF [CCDC70], the protein stability index was 4.07 ± 0.25 (treatment: DMSO) and 4.04 ± 0.24 (treatment: MLN4924 1 uM, 8 h). For EACMTHLHYKWIPVEDSHTADISS [DUSP5], in that order: 3.53 ± 0.23 and 3.63 ± 0.11.

The values are drawn from the supplement of paper PMC10567573.
